# From article PMC10397247
# Where two headings read alike, the source gives them in different places.
# T1: P9-AA
# T1 chain: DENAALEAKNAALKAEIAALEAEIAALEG
# T2: P11-AA
# T2 chain: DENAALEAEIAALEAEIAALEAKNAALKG
# T3: P3-AA
# T3 chain: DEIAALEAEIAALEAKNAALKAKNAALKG
# T4: P7-AA
# T4 chain: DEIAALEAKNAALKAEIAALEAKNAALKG
# T5: AP3-AA
# T5 chain: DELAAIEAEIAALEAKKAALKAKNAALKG
# T6: P2-AA
# T6 chain: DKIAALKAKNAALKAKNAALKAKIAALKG
# T7: P12-AA
# T7 chain: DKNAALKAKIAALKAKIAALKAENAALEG
# T8: P1-AA
# T8 chain: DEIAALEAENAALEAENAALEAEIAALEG
# T9: AP6-AA
# T9 chain: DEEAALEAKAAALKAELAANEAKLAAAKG
# T10: P10-AA
# T10 chain: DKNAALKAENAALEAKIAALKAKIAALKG
# T11: P8-AA
# T11 chain: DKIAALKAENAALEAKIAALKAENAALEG
# T12: AP8-AA
# T12 chain: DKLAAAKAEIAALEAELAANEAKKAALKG
# T13: AP5-AA
# T13 chain: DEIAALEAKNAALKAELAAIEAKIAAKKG
# T14: AP7-AA
# T14 chain: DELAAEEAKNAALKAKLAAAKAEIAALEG
# T15: AP4-AA
# T15 chain: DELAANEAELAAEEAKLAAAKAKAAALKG
# T16: P4-AA
# T16 chain: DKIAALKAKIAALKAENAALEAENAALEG
# T17: AP2-AA
# T17 chain: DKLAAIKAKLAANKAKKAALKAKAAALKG
# T18: 4H3497-bH
# T18 chain: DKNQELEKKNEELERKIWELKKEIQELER
# T19: 4H3613-bH
# T19 chain: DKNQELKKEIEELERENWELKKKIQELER
# T20: 4H3926-bH
# T20 chain: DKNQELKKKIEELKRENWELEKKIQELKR
# T21: 4H906-bH
# T21 chain: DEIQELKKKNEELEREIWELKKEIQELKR
# T22: 4H1985-bH
# T22 chain: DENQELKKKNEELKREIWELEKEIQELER
# T23: 4H3974-bH
# T23 chain: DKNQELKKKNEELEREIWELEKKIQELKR
# T24: 4H3298-bH
# T24 chain: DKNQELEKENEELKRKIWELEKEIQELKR
# T25: 4H626-bH
# T25 chain: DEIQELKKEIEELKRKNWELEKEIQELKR
# T26: 4H3817-bH
# T26 chain: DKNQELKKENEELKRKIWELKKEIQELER
# T27: 4H3628-bN
# T27 chain: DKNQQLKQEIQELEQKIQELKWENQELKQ
# T28: 4H3462-bH
# T28 chain: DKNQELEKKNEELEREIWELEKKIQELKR
# T29: 4H3162-bH
# T29 chain: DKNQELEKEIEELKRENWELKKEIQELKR
# T30: 4H3175-bH
# T30 chain: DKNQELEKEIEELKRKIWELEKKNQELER
# T31: 4H3858-bH
# T31 chain: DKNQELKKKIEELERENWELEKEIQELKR
# T32: 4H1899-bH
# T32 chain: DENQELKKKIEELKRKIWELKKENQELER
# T33: 4H3277-bH
# T33 chain: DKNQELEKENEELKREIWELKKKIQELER
# T34: 4H3414-bH
# T34 chain: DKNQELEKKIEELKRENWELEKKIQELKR
# T35: 4H570-bH
# T35 chain: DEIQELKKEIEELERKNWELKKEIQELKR
# T36: 4H3628-bH
# T36 chain: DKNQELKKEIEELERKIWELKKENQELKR
# T37: 4H591-bH
# T37 chain: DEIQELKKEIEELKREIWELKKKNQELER
# T38: 4H850-bH
# T38 chain: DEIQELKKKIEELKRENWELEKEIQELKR
# Tests used:
# P9-AA = biological target: T1, P9-AA; assay: two-hybrid library CCmax; details: mean of both orientations;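 also: natural log of median RNA to DNA barcode read ratio; higher means stronger binding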
# P11-AA = biological target: T2, P11-AA; assay: two-hybrid library CCmax; details: mean of both orientations;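 also: natural log of median RNA to DNA barcode read ratio; higher means stronger binding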
# P3-AA = biological target: T3, P3-AA; assay: two-hybrid library CCmax; details: mean of both orientations;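 also: natural log of median RNA to DNA barcode read ratio; higher means stronger binding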
# P7-AA = biological target: T4, P7-AA; assay: two-hybrid library CCmax; details: mean of both orientations;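 also: natural log of median RNA to DNA barcode read ratio; higher means stronger binding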
# GCN2_T = assay: two-hybrid library CCmax;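 also: natural log of median RNA to DNA barcode read ratio; higher means stronger binding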
# AP3-AA = biological target: T5, AP3-AA; assay: two-hybrid library CCmax;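 also: natural log of median RNA to DNA barcode read ratio; higher means stronger binding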
# P2-AA = biological target: T6, P2-AA; assay: two-hybrid library CCmax; details: mean of both orientations
# P12-AA = biological target: T7, P12-AA; assay: two-hybrid library CCmax; details: mean of both orientations
# P1-AA = biological target: T8, P1-AA; assay: two-hybrid library CCmax; details: mean of both orientations
# AP6-AA = biological target: T9, AP6-AA; assay: two-hybrid library CCmax; details: mean of both orientations
# P10-AA = biological target: T10, P10-AA; assay: two-hybrid library CCmax; details: mean of both orientations
# P8-AA = biological target: T11, P8-AA; assay: two-hybrid library CCmax; details: mean of both orientations
# AP8-AA = biological target: T12, AP8-AA; assay: two-hybrid library CCmax; details: mean of both orientations
# AP5-AA = biological target: T13, AP5-AA; assay: two-hybrid library CCmax; details: mean of both orientations
# AP7-AA = biological target: T14, AP7-AA; assay: two-hybrid library CCmax
# AP4-AA = biological target: T15, AP4-AA; assay: two-hybrid library CCmax; details: mean of both orientations
# P4-AA = biological target: T16, P4-AA; assay: two-hybrid library CCmax; details: mean of both orientations
# AP2-AA = biological target: T17, AP2-AA; assay: two-hybrid library CCmax
# 4H3497-bH = biological target: T18, 4H3497-bH; assay: two-hybrid library CCNG1
# 4H3613-bH = biological target: T19, 4H3613-bH; assay: two-hybrid library CCNG1
# 4H3926-bH = biological target: T20, 4H3926-bH; assay: two-hybrid library CCNG1
# 4H906-bH = biological target: T21, 4H906-bH; assay: two-hybrid library CCNG1
# 4H1985-bH = biological target: T22, 4H1985-bH; assay: two-hybrid library CCNG1
# 4H3974-bH = biological target: T23, 4H3974-bH; assay: two-hybrid library CCNG1
# 4H3298-bH = biological target: T24, 4H3298-bH; assay: two-hybrid library CCNG1
# 4H626-bH = biological target: T25, 4H626-bH; assay: two-hybrid library CCNG1
# 4H3817-bH = biological target: T26, 4H3817-bH; assay: two-hybrid library CCNG1
# 4H3628-bN = biological target: T27, 4H3628-bN; assay: two-hybrid library CCNG1
# 4H3462-bH = biological target: T28, 4H3462-bH; assay: two-hybrid library CCNG1
# 4H3162-bH = biological target: T29, 4H3162-bH; assay: two-hybrid library CCNG1
# 4H3175-bH = biological target: T30, 4H3175-bH; assay: two-hybrid library CCNG1
# 4H3858-bH = biological target: T31, 4H3858-bH; assay: two-hybrid library CCNG1
# 4H1899-bH = biological target: T32, 4H1899-bH; assay: two-hybrid library CCNG1
# 4H3277-bH = biological target: T33, 4H3277-bH; assay: two-hybrid library CCNG1
# 4H3414-bH = biological target: T34, 4H3414-bH; assay: two-hybrid library CCNG1
# 4H570-bH = biological target: T35, 4H570-bH; assay: two-hybrid library CCNG1
# 4H3628-bH = biological target: T36, 4H3628-bH; assay: two-hybrid library CCNG1
# 4H591-bH = biological target: T37, 4H591-bH; assay: two-hybrid library CCNG1
# 4H850-bH = biological target: T38, 4H850-bH; assay: two-hybrid library CCNG1
binder,measurement,setting,value
DELAAIEAEIAALEAKKAALKAKNAALKG [AP3-AA],interaction score,P9-AA,-1.41
same,interaction score,P11-AA,-1.01
same,interaction score,P3-AA,-1.84
same,interaction score,P7-AA,-1.23
same,interaction score,GCN2_T,-1.8
same,interaction score,AP3-AA,0.89
same,interaction score,P2-AA,-1.75
same,interaction score,P12-AA,-1.03
same,interaction score,P1-AA,-2.22
same,interaction score,AP6-AA,-1.78
same,interaction score,P10-AA,-0.602
same,interaction score,P8-AA,-1.45
same,interaction score,AP8-AA,-1.48
same,interaction score,AP5-AA,-1.45
same,interaction score,AP7-AA; mean of both orientations,-1.93
same,interaction score,AP4-AA,-1.84
same,interaction score,P4-AA,1.61
DKLAAIKAKLAANKAKKAALKAKAAALKG [AP2-AA],interaction score,P9-AA,-1.65
same,interaction score,P11-AA,-0.526
same,interaction score,P3-AA,-1.95
same,interaction score,P7-AA,-1.75
same,interaction score,GCN2_T,-1.81
same,interaction score,AP3-AA; mean of both orientations,-2.09
same,interaction score,P2-AA,-1.94
same,interaction score,P12-AA,-1.59
same,interaction score,P1-AA,0.511
same,interaction score,AP6-AA,-1.74
same,interaction score,P10-AA,-1.76
same,interaction score,P8-AA,-1.86
same,interaction score,AP8-AA,-1.71
same,interaction score,AP5-AA,-1.24
same,interaction score,AP7-AA,-1.6
same,interaction score,AP4-AA,-1.62
same,interaction score,P4-AA,-1.83
same,interaction score,AP2-AA,-2.11
DENQELKKKIEELKRKIWELKKENQELER [4H1899-bH],interaction score,4H3497-bH,0.766
same,interaction score,4H3613-bH,-0.355
same,interaction score,4H3926-bH,-0.236
same,interaction score,4H906-bH,-0.666
same,interaction score,4H1985-bH,1.05
same,interaction score,4H3974-bH,0.298
same,interaction score,4H3298-bH,-0.203
same,interaction score,4H626-bH,-1.98
same,interaction score,4H3817-bH,0.356
same,interaction score,4H3628-bN,0.735
same,interaction score,4H3462-bH,0.0285
same,interaction score,4H3162-bH,-0.289
same,interaction score,4H3175-bH,0.0491
same,interaction score,4H3858-bH,-0.0187
same,interaction score,4H1899-bH,0.337
same,interaction score,4H3277-bH,-0.392
same,interaction score,4H3414-bH,-0.169
same,interaction score,4H570-bH,-1.69
same,interaction score,4H3628-bH,1.19
same,interaction score,4H591-bH,-0.968
same,interaction score,4H850-bH,-0.44
